The record followed here is the supplement of paper PMC10567573.

The labels stand for the following.
B1: FAM98B (parent)
chain: QLDKNSEVYQEVQAMFDTLGIPKS
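Also: lentivirally expressed fusions sorted by FACS into six bins by GFP to DsRed ratio, PSI derived from sequencing read proportions per bin multiplied by bin number.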

The variants in this data set derive from B1. In words: protein stability index of a GFP-peptide fusion (GPS, HEK-293T) (PSI 1-6); higher = more stable. The settings on record: c terminus: a fixed tail appended.
As to QLDKESEVYQEVQAMFDTLGIPKS [N5E], the protein stability index is 3.86.
The figure for QLDKGSEVYQEVQAMFDTLGIPKS [N5G] is 3.98; for QLDKDSEVYQEVQAMFDTLGIPKS [N5D] it is 4.66.
The value for QLDKMSEVYQEVQAMFDTLGIPKS [N5M] was 3.24.
Regarding QLDKCSEVYQEVQAMFDTLGIPKS [N5C], the protein stability index turned out to be 3.37.
Consider QLDKKSEVYQEVQAMFDTLGIPKS [N5K], for which the protein stability index turned out to be 3.88.
The value for QLDKFSEVYQEVQAMFDTLGIPKS [N5F] was 3.41.
As to QLDKWSEVYQEVQAMFDTLGIPKS [N5W], the protein stability index turned out to be 2.91.
QLDKYSEVYQEVQAMFDTLGIPKS [N5Y]: the protein stability index was 2.83.
The figure for QLDKISEVYQEVQAMFDTLGIPKS [N5I] is 2.88.
In the case of QLDKASEVYQEVQAMFDTLGIPKS [N5A], the protein stability index was 3.56.
The figure for QLDKHSEVYQEVQAMFDTLGIPKS [N5H] is 3.94.
The value for QLDKLSEVYQEVQAMFDTLGIPKS [N5L] was 2.69.
Turning to QLDKVSEVYQEVQAMFDTLGIPKS [N5V], the protein stability index was found to be 3.99.
Take QLDKRSEVYQEVQAMFDTLGIPKS [N5R]: the protein stability index amounted to 3.55.
QLDKPSEVYQEVQAMFDTLGIPKS [N5P]: the protein stability index turned out to be 4.37.
The figure for QLDKSSEVYQEVQAMFDTLGIPKS [N5S] is 3.97; for QLDKQSEVYQEVQAMFDTLGIPKS [N5Q] it is 4.22.
Regarding QLDKTSEVYQEVQAMFDTLGIPKS [N5T], the protein stability index worked out at 4.11.
The value for QLDYNSEVYQEVQAMFDTLGIPKS [K4Y] was 3.39; that for QLDINSEVYQEVQAMFDTLGIPKS [K4I] was 2.56.
The value for QLDRNSEVYQEVQAMFDTLGIPKS [K4R] was 2.95; that for QLDNNSEVYQEVQAMFDTLGIPKS [K4N] was 3.67.
The value for QLDTNSEVYQEVQAMFDTLGIPKS [K4T] was 3.08; that for QLDGNSEVYQEVQAMFDTLGIPKS [K4G] was 3.5; that for QLDFNSEVYQEVQAMFDTLGIPKS [K4F] was 2.93.
On to QLDDNSEVYQEVQAMFDTLGIPKS [K4D], for which the protein stability index was found to be 3.44.
The value for QLDHNSEVYQEVQAMFDTLGIPKS [K4H] was 3.43.
The figure for QLDCNSEVYQEVQAMFDTLGIPKS [K4C] is 3; for QLDENSEVYQEVQAMFDTLGIPKS [K4E] it is 3.62.
QLDSNSEVYQEVQAMFDTLGIPKS [K4S]: the protein stability index is 3.52.
Turning to QLDVNSEVYQEVQAMFDTLGIPKS [K4V], the protein stability index came out at 2.2.
Turning to QLDMNSEVYQEVQAMFDTLGIPKS [K4M], the protein stability index worked out at 2.85.
The value for QLDLNSEVYQEVQAMFDTLGIPKS [K4L] was 3.39.
The figure for QLDQNSEVYQEVQAMFDTLGIPKS [K4Q] is 3.03; for QLDWNSEVYQEVQAMFDTLGIPKS [K4W] it is 3.04.
For the variant QLDPNSEVYQEVQAMFDTLGIPKS [K4P], the protein stability index was found to be 3.
The figure for QLDKNVEVYQEVQAMFDTLGIPKS [S6V] is 3.47; for QLDKNCEVYQEVQAMFDTLGIPKS [S6C] it is 2.77.
The value for QLDKNEEVYQEVQAMFDTLGIPKS [S6E] was 4.21.
The figure for QLDKNMEVYQEVQAMFDTLGIPKS [S6M] is 3.23.
With QLDKNGEVYQEVQAMFDTLGIPKS [S6G], the protein stability index worked out at 3.56.
As to QLDKNAEVYQEVQAMFDTLGIPKS [S6A], the protein stability index stood at 3.6.
Take QLDKNHEVYQEVQAMFDTLGIPKS [S6H]: the protein stability index amounted to 3.35.
Take QLDKNQEVYQEVQAMFDTLGIPKS [S6Q]: the protein stability index is 3.14.
Regarding QLDKNREVYQEVQAMFDTLGIPKS [S6R], the protein stability index amounted to 2.88.
For QLDKNPEVYQEVQAMFDTLGIPKS [S6P], the protein stability index turned out to be 4.
Consider QLDKNFEVYQEVQAMFDTLGIPKS [S6F], for which the protein stability index was 2.63.
For QLDKNLEVYQEVQAMFDTLGIPKS [S6L], the protein stability index is 2.66.
Regarding QLDKNYEVYQEVQAMFDTLGIPKS [S6Y], the protein stability index came out at 2.71.
Regarding QLDKNTEVYQEVQAMFDTLGIPKS [S6T], the protein stability index was determined as 3.53.
For QLDKNWEVYQEVQAMFDTLGIPKS [S6W], the protein stability index turned out to be 2.32.
The value for QLDKNKEVYQEVQAMFDTLGIPKS [S6K] was 3.23.
As to QLDKNIEVYQEVQAMFDTLGIPKS [S6I], the protein stability index amounted to 2.69.
As to QLDKNNEVYQEVQAMFDTLGIPKS [S6N], the protein stability index was determined as 3.29.
The value for QLDKNDEVYQEVQAMFDTLGIPKS [S6D] was 4.67; that for QLDKNSSVYQEVQAMFDTLGIPKS [E7S] was 2.77; that for QLDKNSTVYQEVQAMFDTLGIPKS [E7T] was 2.83.
QLDKNSMVYQEVQAMFDTLGIPKS [E7M]: the protein stability index amounted to 3.01.
With QLDKNSNVYQEVQAMFDTLGIPKS [E7N], the protein stability index was 3.2.
Take QLDKNSCVYQEVQAMFDTLGIPKS [E7C]: the protein stability index was found to be 2.62.
Take QLDKNSWVYQEVQAMFDTLGIPKS [E7W]: the protein stability index amounted to 2.13.
The figure for QLDKNSLVYQEVQAMFDTLGIPKS [E7L] is 3.05.
The value for QLDKNSIVYQEVQAMFDTLGIPKS [E7I] was 1.99.
The value for QLDKNSPVYQEVQAMFDTLGIPKS [E7P] was 2.58; that for QLDKNSVVYQEVQAMFDTLGIPKS [E7V] was 2.58; that for QLDKNSYVYQEVQAMFDTLGIPKS [E7Y] was 2.26.
QLDKNSDVYQEVQAMFDTLGIPKS [E7D]: the protein stability index stood at 3.86.
Turning to QLDKNSGVYQEVQAMFDTLGIPKS [E7G], the protein stability index worked out at 2.97.
Consider QLDKNSHVYQEVQAMFDTLGIPKS [E7H], for which the protein stability index was 2.51.
The figure for QLDKNSQVYQEVQAMFDTLGIPKS [E7Q] is 2.81; for QLDKNSAVYQEVQAMFDTLGIPKS [E7A] it is 3.44; for QLDKNSRVYQEVQAMFDTLGIPKS [E7R] it is 2.87.
The value for QLDKNSKVYQEVQAMFDTLGIPKS [E7K] was 3.06; that for QLDKNSFVYQEVQAMFDTLGIPKS [E7F] was 2.39; that for QLDKNSEPYQEVQAMFDTLGIPKS [V8P] was 3.32.
QLDKNSECYQEVQAMFDTLGIPKS [V8C]: the protein stability index was 3.02.
The value for QLDKNSEGYQEVQAMFDTLGIPKS [V8G] was 3.12; that for QLDKNSESYQEVQAMFDTLGIPKS [V8S] was 3.35.
As to QLDKNSETYQEVQAMFDTLGIPKS [V8T], the protein stability index is 3.81.
Regarding QLDKNSENYQEVQAMFDTLGIPKS [V8N], the protein stability index was determined as 3.94.
The value for QLDKNSEWYQEVQAMFDTLGIPKS [V8W] was 2.88.
The value for QLDKNSEEYQEVQAMFDTLGIPKS [V8E] was 3.79; that for QLDKNSEDYQEVQAMFDTLGIPKS [V8D] was 3.62; that for QLDKNSEYYQEVQAMFDTLGIPKS [V8Y] was 2.96.
Turning to QLDKNSEKYQEVQAMFDTLGIPKS [V8K], the protein stability index was found to be 3.07.
The figure for QLDKNSEQYQEVQAMFDTLGIPKS [V8Q] is 3.31; for QLDKNSERYQEVQAMFDTLGIPKS [V8R] it is 3.36.
The value for QLDKNSELYQEVQAMFDTLGIPKS [V8L] was 3.47.
QLDKNSEIYQEVQAMFDTLGIPKS [V8I]: the protein stability index was found to be 2.73.
Take QLDKNSEMYQEVQAMFDTLGIPKS [V8M]: the protein stability index amounted to 3.2.
The value for QLDKNSEFYQEVQAMFDTLGIPKS [V8F] was 2.55; that for QLDKNSEAYQEVQAMFDTLGIPKS [V8A] was 3.85; that for QLDKNSEHYQEVQAMFDTLGIPKS [V8H] was 3.12.
